Results: patent US11904007B2, “Protection from stress, anxiety, neuroinflammation, and cognitive dysfunction” (The Regents of the University of Colorado, a body corporate, priority 2018, dated 2024)

B1: rIL4: Recombinant rat IL4 (R & D Systems), injected intra-cisterna magna (protein, UniProt P20096 25-147, looked up)
Interleukin-4: CNDSPLREIINTLNQVTEKGTPCTEMFVPDVLTATRNTTENELICRASRVLRKFYFPRDVPPCLKNKSGVLGELRKLCRGVSGLNSLRSCTVNESTLTTLKDFLESLKSILRGKYLQSCTSMS

Tests used:
Assay type in all cases: in vivo, rat
IL-4 = assay: Blocking of M. vaccae effects on hippocampal gene expression by ICM soluble IL-4 receptor alpha; conditions: 5 μg, ICM injection after M. vaccae at day −21, −14, −7
Description: FIG. 25 is a schematic depicting the experimental design configured to develop and validate IL-4 blocking methods in the brain. The schematic depicts the timing of M. vaccae or BBS treatment and intra-cisterna magna (ICM) injections containing soluble IL-4 receptor alpha or vehicle followed by tissue collection and analysis.
FIG. 26A-C show rtPCR detection in collection tissue samples after ICM injections for IL-4 (A); CD200R1 (B); and CD206 (C).
In this embodiment, rats were administered M. vaccae or BBC (at day −21, −14, and −7) and then administered 5 μg of soluble IL-4 receptor alpha or a control vehicle.

Cd200r1 = assay: Hippocampal Cd200r1 mRNA expression (real time RT-PCR); conditions: 100 ng i.c.m.
Description: (§1) Animals: Adult male Sprague-Dawley rats (60-90 d old) were pair-housed with food and water available ad libitum. The colony was maintained at 22° C. on a 12 h light/dark cycle (lights on at 07:00 h).
(§2) M. vaccae treatment: M. vaccae is a saprophytic environmental mycobacterium, which we have used previously to mitigate stress-induced anxiety-like behavior and peripheral proinflammatory responses. Briefly, whole heat-killed M. vaccae (strain NCTC 11659, batch ENG 1; Bio Elpida; 10 mg/ml) was suspended in sterile borate-buffered saline (BBS) to yield a final concentration of 1 mg/ml. Sterile BBS served as the vehicle control. Consistent with our prior work with M. vaccae, experimental animals received 3× subcutaneous (s.c.) immunizations with 0.1 mg whole heat-killed M. vaccae suspension (0.1 ml) or vehicle (0.1 ml). Injections occurred at −21 d, −14 d and −7 d prior to stress exposure. FIG. 5 provides a timeline of M. vaccae treatment relative to stress exposure, behavioral testing and tissue/microglia collection.
(§3) Recombinant rat IL4 (rIL4) treatment: Vehicle (sterile 1× PBS+0.1% BSA) or rIL4 (100 ng dissolved in vehicle; R & D Systems) was injected intra-cisterna magna (i.c.m.; 5 μl total volume). Two and 24 h post-injection, hippocampus was collected for gene expression analysis of IL4-sensitive target genes. […]

Mrc1 = assay: Hippocampal Mrc1 mRNA expression (real time RT-PCR); conditions: 100 ng i.c.m., 2 h post-injection
Description: as §1, §2, §3

Cd200 = assay: Hippocampal Cd200 mRNA expression (real time RT-PCR); conditions: 100 ng i.c.m., 2 h and 24 h post-injection
Description: as §1, §2, §3

Row | Molecule | Effect of M. vaccae administration on hippocampal gene expression (IL-4) | Cd200r1 expression in hippocampus (Cd200r1; 2 h post-injection) | Cd200r1 expression in hippocampus (Cd200r1; 24 h post-injection) | Mrc1 expression in hippocampus (Mrc1) | Cd200 expression in hippocampus (Cd200)
1 | soluble IL-4 receptor alpha: soluble form of IL-4 receptor alpha, can inhibit IL4-mediated cell proliferation; ICM injection | blocked |  |  |  | 
2 | B1 |  | significant increase | significant increase | significant increase | failed to significantly alter
